Data as given in PMC10049731, “Legumain Functions as a Transient TrkB Sheddase” (International Journal of Molecular Sciences, 2023).

Columns and labels:
[1] = biological target: T1, TrkB ectodomain (Ser29-Glu428) (rat, UniProt Q63604-1 29-428, several glycosylation forms; labelled with NT-647 RED dye in the MST set-up with labelled TrkB); assay: MST; in solution; TrkB ECD or Ig2 with proBDNF; which partner was labelled is not told; MST buffer 1x PBS pH 7.4, 0.005% Tween 20; conditions: both partners purified
T1 construct: Secreted by way of the pHLsec vector; also called TrkB ECD; full-length ectodomain; source: HEK293S, transfected (pHLsec), secreted into medium, purified (Ni-NTA); not shown: His6, C-terminal, kept

[2] = biological target: TrkB Ig2 domain (His283-Glu428) (rat); assay: as above
[3] = biological target: T2, legumain-processed TrkB ectodomain (rat, UniProt Q63604-1 29-391, glycosylated; labelled with NT-647 RED dye in the MST); assay: MST; in solution; TrkB variant (intact or legumain-processed) labelled with NT-647 RED and kept constant, unlabelled BDNF (20.5 uM) in a 16-step 1:2 dilution series; 1x PBS pH 7.4, 0.005% Tween 20; 10 min at RT; Monolith NT.115; conditions: both partners purified
T2 construct: TrkB, rat, ectodomain construct Ser29-Glu428 cut by legumain in the membrane linker; dominant cleavage site after Asn391, minor sites after Asp385 and Asn389, so the C-terminus is a mixture; C-terminal limit is that of the dominant cleavage site (Asn391); the His6 tag is lost with the cut fragment; also called legumain-processed TrkB ECD; processed TrkB ECD; source: HEK293S, purified (Ni-NTA), …

[4] = biological target: T1, TrkB ectodomain (Ser29-Glu428); assay: as above; conditions: both partners purified
[5] = biological target: the molecule itself; assay: dynamic light scattering; BDNF alone; Figure S4C; conditions not shown
[6] = biological target: TrkB Ig2 domain (His283-Glu428) (rat); assay: MST; in solution; TrkB variant (intact or legumain-processed) labelled with NT-647 RED and kept constant, unlabelled BDNF (20.5 uM) in a 16-step 1:2 dilution series; 1x PBS pH 7.4, 0.005% Tween 20; 10 min at RT; Monolith NT.115
[7] = biological target: legumain-processed TrkB Ig2 domain (rat); assay: as above

T1 sequence (Q63604 29-428): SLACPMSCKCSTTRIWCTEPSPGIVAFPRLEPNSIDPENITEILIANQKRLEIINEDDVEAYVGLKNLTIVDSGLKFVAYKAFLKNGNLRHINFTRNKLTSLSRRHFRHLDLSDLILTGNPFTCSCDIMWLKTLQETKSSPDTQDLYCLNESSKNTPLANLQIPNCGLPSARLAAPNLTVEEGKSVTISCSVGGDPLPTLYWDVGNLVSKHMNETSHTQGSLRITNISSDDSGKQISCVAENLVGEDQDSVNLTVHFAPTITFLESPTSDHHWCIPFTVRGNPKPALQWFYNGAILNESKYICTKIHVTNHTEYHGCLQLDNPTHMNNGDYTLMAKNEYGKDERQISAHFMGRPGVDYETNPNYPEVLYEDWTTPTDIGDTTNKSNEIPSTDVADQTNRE
T2 sequence (Q63604 29-391): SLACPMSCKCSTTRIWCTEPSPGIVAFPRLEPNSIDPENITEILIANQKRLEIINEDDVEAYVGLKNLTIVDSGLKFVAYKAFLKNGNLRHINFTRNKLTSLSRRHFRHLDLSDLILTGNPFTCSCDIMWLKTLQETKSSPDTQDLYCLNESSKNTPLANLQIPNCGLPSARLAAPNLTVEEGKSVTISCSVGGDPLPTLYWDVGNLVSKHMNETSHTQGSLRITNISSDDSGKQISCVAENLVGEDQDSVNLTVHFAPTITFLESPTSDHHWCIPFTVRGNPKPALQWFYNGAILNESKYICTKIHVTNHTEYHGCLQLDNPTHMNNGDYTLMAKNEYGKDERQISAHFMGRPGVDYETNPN

Row | Kd [1] | Kd [2] | Kd [3] | Kd [4] | Kd [6] | Kd [7] | Binder | stoichiometry N [5]
1 | 306 nM | 441 nM | – | – | – | – | proBDNF (ligand, rat, UniProt P23363 19-249, looked up, proBDNF, the pro-form of brain-derived neurotrophic factor; also called pro-form of BDNF; source: E. coli Rosetta 2 (DE3), inclusion bodies, folded in vitro, purified (SP-sepharose)) APMKEANVHGQGNLAYPAVRTHGTLESVNGPRAGSRGLTTTSLADTFEHVIEELLDEDQKVRPNEENHKDADLYTSRVMLSSQVPLEPPLLFLLEEYKNYLDAANMSMRVRRHSDPARRGELSVCDSISEWVTAADKKTAVDMSGGTVTVLEKVPVSKGQLKQYFYETKCNPMGYTKEGCRGIDKRHWNSQCRTTQSYVRALTMDSKKRIGWRFIRIDTSCVCTLTIKRGR | –
2 | – | – | 188 ± 82 nM | 106 ± 44 nM | 67 nM | 300 nM | Brain-derived neurotrophic factor (BDNF), mature (His131-Arg249) (ligand, rat, UniProt P23363 131-249, looked up, disulfides Cys143-Cys210, Cys188-Cys239, Cys199-Cys241; labelled with NT-647 RED dye in the MST set-up with labelled BDNF, mature BDNF, cut from proBDNF by furin, His131-Arg249; The species rests on the legend 'Preparation of rat TrkB and proBDNF'; the printed residue numbers fit a 249-residue precursor; also called mature BDNF) HSDPARRGELSVCDSISEWVTAADKKTAVDMSGGTVTVLEKVPVSKGQLKQYFYETKCNPMGYTKEGCRGIDKRHWNSQCRTTQSYVRALTMDSKKRIGWRFIRIDTSCVCTLTIKRGR | 2
